Source: the supplement of paper PMC5998384

Legend:
HeLa Kyoto [1] = assay: melting temperature (median over replicates), in situ; higher = more thermally stable
HeLa Kyoto [2] = assay: thermal stability score vs G1/S (z-score of summed log2 fold changes over temperatures); higher = more thermally stable than in G1/S
HeLa Kyoto [3] = assay: solubility in G1/S (NP-40 vs SDS abundance) (log2 ratio); higher = more soluble; settings: cell cycle stage: G1/S
HeLa Kyoto [4] = assay: solubility change mitosis vs G1/S (difference of NP-40 vs SDS log2 ratios) (log2 ratio difference); higher = more soluble in mitosis
[5] = cell cycle stage: early G1 (4.5 h after nocodazole release)
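For melting temperature (median over replicates), in situ in this document: HeLa Kyoto cells synchronized by double thymidine or nocodazole block, proteins quantified by TMT10plex mass spectrometry, three independent biological replicates.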
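For solubility change mitosis vs G1/S (difference of NP-40 vs SDS log2 ratios) in this document: synchronized HeLa Kyoto cells (double thymidine block for G1/S, nocodazole release for mitosis), protein amounts in NP-40 versus SDS lysates quantified by mass spectrometry, three biological replicates.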
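For solubility in G1/S (NP-40 vs SDS abundance) in this document: HeLa Kyoto cells arrested at G1/S by double thymidine block, proteins quantified by TMT10plex mass spectrometry in mild NP-40 versus SDS extracts, three biological replicates.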
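For thermal stability score vs G1/S (z-score of summed log2 fold changes over temperatures) in this document: synchronized HeLa Kyoto cells, proteins quantified by TMT10plex mass spectrometry, three biological replicates, mitosis taken 0.5 h after nocodazole release, G1/S directly after double thymidine block.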

Row | Sequence | melting temperature (HeLa Kyoto [1]; cell cycle stage: G1/S) | melting temperature (HeLa Kyoto [1]; cell cycle stage: mitosis) | thermal stability score (HeLa Kyoto [2]; [5]) | thermal stability score (HeLa Kyoto [2]; cell cycle stage: mitosis) | solubility in G1/S (log2) (HeLa Kyoto [3]) | solubility change mitosis (log2) (HeLa Kyoto [4])
1 | MLGAWAVEGTAVALLRLLLLLLPPAIRGPGLGVAGVAGAAGAGLPESVIWAVNAGGEAHVDVHGIHFRKDPLEGRVGRASDYGMKLPILRSNPEDQILYQTERYNEETFGYEVPIKEEGDYVLVLKFAEVYFAQSQQKVFDVRLNGHVVVKDLDIFDRVGHSTAHDEIIPMSIRKGKLSVQGEVSTFTGKLYIEFVKGYYDNPKVCALYIMAGTVDDVPKLQPHPGLEKKEEEEEEEEYDEGSNLKKQTNKNRVQSGPRTPNPYASDNSSLMFPILVAFGVFIPTLFCLCRL [MLEC] | 53.7 °C | 53.6 °C | 1.83 | 2.38 | -0.0175 | -0.0845
2 | MLGFITRPPHRFLSLLCPGLRIPQLSVLCAQPRPRAMAISSSSCELPLVAVCQVTSTPDKQQNFKTCAELVREAARLGACLAFLPEAFDFIARDPAETLHLSEPLGGKLLEEYTQLARECGLWLSLGGFHERGQDWEQTQKIYNCHVLLNSKGAVVATYRKTHLCDVEIPGQGPMCESNSTMPGPSLESPVSTPAGKIGLAVCYDMRFPELSLALAQAGAEILTYPSAFGSITGPAHWEVLLRARAIETQCYVVAAAQCGRHHEKRASYGHSMVVDPWGTVVARCSEGPGLCLARIDLNYLRQLRRHLPVFQHRRPDLYGNLGHPLS [NIT1] | 54.7 °C | 55.1 °C | -1.82 | -2.71 | 0.248 | -0.133
3 | MLGIWTLLPLVLTSVARLSSKSVNAQVTDINSKGLELRKTVTTVETQNLEGLHHDGQFCHKPCPPGERKARDCTVNGDEPDCVPCQEGKEYTDKAHFSSKCRRCRLCDEGHGLEVEINCTRTQNTKCRCKPNFFCNSTVCEHCDPCTKCEHGIIKECTLTSNTKCKEEGSRSNLGWLCLLLLPIPLIVWVKRKEVQKTCRKHRKENQGSHESPTLNPETVAINLSDVDLSKYITTIAGVMTLSQVKGFVRKNGVNEAKIDEIKNDNVQDTAEQKVQLLRNWHQLHGKKEAYDTLIKDLKKANLCTLAEKIQTIILKDITSDSENSNFRNEIQSLV [FAS] | 54.1 °C | 54.4 °C | -0.244 | -1.13 | 0.525 | 0.0304
4 | MLGLLVALLALGLAVFALLDVWYLVRLPCAVLRARLLQPRVRDLLAEQRFPGRVLPSDLDLLLHMNNARYLREADFARVAHLTRCGVLGALRELRAHTVLAASCARHRRSLRLLEPFEVRTRLLGWDDRAFYLEARFVSLRDGFVCALLRFRQHLLGTSPERVVQHLCQRRVEPPELPADLQHWISYNEASSQLLRMESGLSDVTKDQ [THEM6] | 55.3 °C | 53.8 °C | -1.92 | -2.82 | -0.64 | -0.052
5 | MLKKFDKKDEESGGGSNPFQHLEKSAVLQEARVFNETPINPRKCAHILTKILYLINQGEHLGTTEATEAFFAMTKLFQSNDPTLRRMCYLTIKEMSCIAEDVIIVTSSLTKDMTGKEDNYRGPAVRALCQITDSTMLQAIERYMKQAIVDKVPSVSSSALVSSLHLLKCSFDVVKRWVNEAQEAASSDNIMVQYHALGLLYHVRKNDRLAVNKMISKVTRHGLKSPFAYCMMIRVASKQLEEEDGSRDSPLFDFIESCLRNKHEMVVYEAASAIVNLPGCSAKELAPAVSVLQLFCSSPKAALRYAAVRTLNKVAMKHPSAVTACNLDLENLVTDSNRSIATLAITTLLKTGSESSIDRLMKQISSFMSEISDEFKVVVVQAISALCQKYPRKHAVLMNFLFTMLREEGGFEYKRAIVDCIISIIEENSESKETGLSHLCEFIEDCEFTVLATRILHLLGQEGPKTTNPSKYIRFIYNRVVLEHEEVRAGAVSALAKFGAQNEEMLPSILVLLKRCVMDDDNEVRDRATFYLNVLEQKQKALNAGYILNGLTVSIPGLERALQQYTLEPSEKPFDLKSVPLATAPMAEQRTESTPITAVKQPEKVAATRQEIFQEQLAAVPEFRGLGPLFKSSPEPVALTESETEYVIRCTKHTFTNHMVFQFDCTNTLNDQTLENVTVQMEPTEAYEVLCYVPARSLPYNQPGTCYTLVALPKEDPTAVACTFSCMMKFTVKDCDPTTGETDDEGYEDEYVLEDLEVTVADHIQKVMKLNFEAAWDEVGDEFEKEETFTLSTIKTLEEAVGNIVKFLGMHPCERSDKVPDNKNTHTLLLAGVFRGGHDILVRSRLLLLDTVTMQVTARSLEELPVDIILASVG [COPG1] | 52 °C | 51.5 °C | 0.468 | -0.737 | -0.169 | -0.224
6 | MLLAVLLLLPLPSSWFAHGHPLYTRLPPSALQVLSAQGTQALQAAQRSAQWAINRVAMEIQHRSHECRGSGRPRPQALLQDPPEPGPCGERRPSTANVTRAHGRIVGGSAAPPGAWPWLVRLQLGGQPLCGGVLVAASWVLTAAHCFVGAPNELLWTVTLAEGSRGEQAEEVPVNRILPHPKFDPRTFHNDLALVQLWTPVSPGGSARPVCLPQEPQEPPAGTACAIAGWGALFEDGPEAEAVREARVPLLSTDTCRRALGPGLRPSTMLCAGYLAGGVDSCQGDSGGPLTCSEPGPRPREVLFGVTSWGDGCGEPGKPGVYTRVAVFKDWLQEQMSASSSREPSCRELLAWDPPQELQADAARLCAFYARLCPGSQGACARLAHQQCLQRRRRCELRSLAHTLLGLLRNAQELLGPRPGLRRLAPALALPAPALRESPLHPARELRLHSGSRAAGTRFPKRRPEPRGEANGCPGLEPLRQKLAALQGAHAWILQVPSEHLAMNFHEVLADLGSKTLTGLFRAWVRAGLGGRHVAFSGLVGLEPATLARSLPRLLVQALQAFRVAALAEGEPEGPWMDVGQGPGLERKGHHPLNPQVPPARQP [PRSS56] | 53.2 °C | 53.3 °C | 1.67 | 3.49 | 0.296 | -0.116
7 | MLLKTVLLLGHVAQVLMLDNGLLQTPPMGWLAWERFRCNINCDEDPKNCISEQLFMEMADRMAQDGWRDMGYTYLNIDDCWIGGRDASGRLMPDPKRFPHGIPFLADYVHSLGLKLGIYADMGNFTCMGYPGTTLDKVVQDAQTFAEWKVDMLKLDGCFSTPEERAQGYPKMAAALNATGRPIAFSCSWPAYEGGLPPRVNYSLLADICNLWRNYDDIQDSWWSVLSILNWFVEHQDILQPVAGPGHWNDPDMLLIGNFGLSLEQSRAQMALWTVLAAPLLMSTDLRTISAQNMDILQNPLMIKINQDPLGIQGRRIHKEKSLIEVYMRPLSNKASALVFFSCRTDMPYRYHSSLGQLNFTGSVIYEAQDVYSGDIISGLRDETNFTVIINPSGVVMWYLYPIKNLEMSQQ [NAGA] | 54.8 °C | 54.5 °C | -1.47 | -2.02 | 0.254 | -0.171
8 | MLLLPSAADGRGTAITHALTSASTLCQVEPVGRWFEAFVKRRNRNASASFQELEDKKELSEESEDEELQLEEFPMLKTLDPKDWKNQDHYAVLGLGHVRYKATQRQIKAAHKAMVLKHHPDKRKAAGEPIKEGDNDYFTCITKAYEMLSDPVKRRAFNSVDPTFDNSVPSKSEAKDNFFEVFTPVFERNSRWSNKKNVPKLGDMNSSFEDVDIFYSFWYNFDSWREFSYLDEEEKEKAECRDERRWIEKQNRATRAQRKKEEMNRIRTLVDNAYSCDPRIKKFKEEEKAKKEAEKKAKAEAKRKEQEAKEKQRQAELEAARLAKEKEEEEVRQQALLAKKEKDIQKKAIKKERQKLRNSCKTWNHFSDNEAERVKMMEEVEKLCDRLELASLQCLNETLTSCTKEVGKAALEKQIEEINEQIRKEKEEAEARMRQASKNTEKSTGGGGNGSKNWSEDDLQLLIKAVNLFPAGTNSRWEVIANYMNIHSSSGVKRTAKDVIGKAKSLQKLDPHQKDDINKKAFDKFKKEHGVVPQADNATPSERFEGPYTDFTPWTTEEQKLLEQALKTYPVNTPERWEKIAEAVPGRTKKDCMKRYKELVEMVKAKKAAQEQVLNASRAKK [DNAJC2] | 48.6 °C | 48.7 °C | 1.17 | 1.39 | 0.0111 | -0.0365
9 | MLLPAPALRRALLSRPWTGAGLRWKHTSSLKVANEPVLAFTQGSPERDALQKALKDLKGRMEAIPCVVGDEEVWTSDVQYQVSPFNHGHKVAKFCYADKSLLNKAIEAALAARKEWDLKPIADRAQIFLKAADMLSGPRRAEILAKTMVGQGKTVIQAEIDAAAELIDFFRFNAKYAVELEGQQPISVPPSTNSTVYRGLEGFVAAISPFNFTAIGGNLAGAPALMGNVVLWKPSDTAMLASYAVYRILREAGLPPNIIQFVPADGPLFGDTVTSSEHLCGINFTGSVPTFKHLWKQVAQNLDRFHTFPRLAGECGGKNFHFVHRSADVESVVSGTLRSAFEYGGQKCSACSRLYVPHSLWPQIKGRLLEEHSRIKVGDPAEDFGTFFSAVIDAKSFARIKKWLEHARSSPSLTILAGGKCDDSVGYFVEPCIVESKDPQEPIMKEEIFGPVLSVYVYPDDKYKETLQLVDSTTSYGLTGAVFSQDKDVVQEATKVLRNAAGNFYINDKSTGSIVGQQPFGGARASGTNDKPGGPHYILRWTSPQVIKETHKPLGDWSYAYMQ [ALDH4A1] | 51.8 °C | 50.7 °C | -0.222 | -0.434 | 0.0698 | -0.0143
10 | MLLPNILLTGTPGVGKTTLGKELASKSGLKYINVGDLAREEQLYDGYDEEYDCPILDEDRVVDELDNQMREGGVIVDYHGCDFFPERWFHIVFVLRTDTNVLYERLETRGYNEKKLTDNIQCEIFQVLYEEATASYKEEIVHQLPSNKPEELENNVDQILKWIEQWIKDHNS [AK6] | 46.9 °C | 49.8 °C | 1.22 | 1.07 | 0.193 | -0.0162
11 | MLLTVYCVRRDLSEVTFSLQVDADFELHNFRALCELESGIPAAESQIVYAERPLTDNHRSLASYGLKDGDVVILRQKENADPRPPVQFPNLPRIDFSSIAVPGTSSPRQRQPPGTQQSHSSPGEITSSPQGLDNPALLRDMLLANPHELSLLKERNPPLAEALLSGDLEKFSRVLVEQQQDRARREQERIRLFSADPFDLEAQAKIEEDIRQQNIEENMTIAMEEAPESFGQVVMLYINCKVNGHPVKAFVDSGAQMTIMSQACAERCNIMRLVDRRWAGIAKGVGTQKIIGRVHLAQVQIEGDFLPCSFSILEEQPMDMLLGLDMLKRHQCSIDLKKNVLVIGTTGSQTTFLPEGELPECARLAYGAGREDVRPEEIADQELAEALQKSAEDAERQKP [DDI2] | 52.8 °C | 53 °C | -0.385 | 0.166 | 0.489 | -0.11
12 | MLNMWKVRELVDKATNVVMNYSEIESKVREATNDDPWGPSGQLMGEIAKATFMYEQFPELMNMLWSRMLKDNKKNWRRVYKSLLLLAYLIRNGSERVVTSAREHIYDLRSLENYHFVDEHGKDQGINIRQKVKELVEFAQDDDRLREERKKAKKNKDKYVGVSSDSVGGFRYSERYDPEPKSKWDEEWDKNKSAFPFSDKLGELSDKIGSTIDDTISKFRRKDREDSPERCSDSDEEKKARRGRSPKGEFKDEEETVTTKHIHITQATETTTTRHKRTANPSKTIDLGAAAHYTGDKASPDQNASTHTPQSSVKTSVPSSKSSGDLVDLFDGTSQSTGGSADLFGGFADFGSAAASGSFPSQVTATSGNGDFGDWSAFNQAPSGPVASSGEFFGSASQPAVELVSGSQSALGPPPAASNSSDLFDLMGSSQATMTSSQSMNFSMMSTNTVGLGLPMSRSQNTDMVQKSVSKTLPSTWSDPSVNISLDNLLPGMQPSKPQQPSLNTMIQQQNMQQPMNVMTQSFGAVNLSSPSNMLPVRPQTNALIGGPMPMSMPNVMTGTMGMAPLGNTPMMNQSMMGMNMNIGMSAAGMGLTGTMGMGMPNIAMTSGTVQPKQDAFANFANFSK [CLINT1] | 51.6 °C | 51.9 °C | 1.76 | 3.07 | -0.186 | -0.108
